Assay: purified protein yield per well (BCA); higher = higher soluble expression
Procedure, shortened: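 The measured quantity is purified protein yield per well, determined with the Pierce Rapid Gold BCA kit. Anything below 25 ug (0.1 mg/mL) lies under the detection threshold. Enzymes were expressed in E. coli C41(DE3) in 2 mL autoinduction cultures with 100 µg/mL kanamycin at 37 °C for 2 h, then 18 °C for 40 h, and purified on an OT-2 robot using Ni-charged magnetic beads and SUMO protease release.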

Row | Sequence | purified protein yield per well [µg]
1 | GAAGNPYERGPDPTESSIEAPRGHYAVSETSVSALGVTGFGGGTIYYPTSTADGTFGAVAIAPGYTSLQSSIAWLGPRLASQGFVVITIDTRTTLDQPAGRGAQLLAALDYLTRRSSVRNRIDSGRLGVMGHSMGGGGSLEAAKGRPSLQAAIPLTGWNLDKTWPEIRVPTLLVGADGDTIAPVATHSQPFYQSLPSTLDRAYLELNNATHFTPNRPDTTIAKYSVSWLKRFIDNDTRYEQFLCPLPRPSRTIEEYRGNCPHTS [TEP007] | < 25
2 | GASAPAANPYERGPAPTEQALLAPLGSFTYSTVVVPRSQVTGFGGGTIYYPDDTSQGTYGGVVAVPGFVSPEGAVAWLGPHMASRGFVVFTIATTSPFDQPTARGKQLLAALDHLTQRTPDAVRKRLDPARLAVTGHSMGGGGALYASGARPGIKAAIPLAPYNQDKTWNEVATPTLVVGGSADQIASVDKHARPFYNSLTGARDRGLLNVAAADHGDFTQENSITGRYAAAWLKRFVDEDTRYDQYLCPATGGPGVTEYSASCPLS [TEP151] | < 25
3 | GFGGGMIYYPTDTSQGTFGGIAISPGYTAQFSVELSWMGPWLASHGFVVIGIETNSPTDFDQARGTQLLAALDYLTQQSPVRTRVDASRLAVAGHSMGGGGALNAAIRRPSLKATVGITPFLPSSNLANDHVPTMLIAGQADTVVSTSSVINQYNSLPATTKSVFLEVAGGDHGFMVGRPNTVMVRTMLPFLKIFVDNDSRYSKFLCPLMDSSGITQYRST [ESM170] | < 25
4 | GGGGGGGGGGNSGDLPAPNPCTANCGFEIGPNPSLSFLRNGPGPLPVSTTTVPRSVDGFGGGTIYYPSNVSREMAAITISPGFTARQGGVAWWGSALASHGFVVMTIDTNSRFDQPASRGRQLDSALSYLISESDRRNSPISGLVDESRLATMGHSMGGGGSLHSASRNRISAAMPLAPWNQSGSGAFNNINVPTMILACESDTTARVGTHAIPFYNRIPNSTDKVYLEINNGNHSCSTGRSGNDRALLRTYGVSWMKRFLDKDGRYNQFLCGPNHTANSSISDFRDTCVF [DP063] | < 25
5 | GPFAVSSVTVPAGSGPGFNDGTIYYPTDTSQGTFGAVVIMPGFVAVQGQIAWYGPRLASQGFVVMTMDSNALWDFPSDRSRQQLAALNYLTTKSPVKSRIDPNRLALMGWSMGGGGTLESAAANPSLKAAIPLAPWDITNPGDQISVPTMIFGADGDTVAPVSTFTRPAYDALTNTHDKAFVELKGADHFTFASPNTTVAKYSISWLKRFVDNDTRYDQFLCPIPN [TEP056] | < 25
6 | GPGMEGNPYQRGPAPTTASIEAPTGAFAVSNASVPGGNGFGGGTLTYPTDTSQGTFGAVVVTPGFLSPEMKWYGPRLASQGFVVLTIATNTAVDQPGARAAQMLAALRYLVEQSPVKNRVDGSRLAVMGHSMGGGGSLEAAEAYPALKAAIPLEPWDLGKSFSAVRTPTLIVGGQSDWIAPVGQHAVPFYNSIPAGVNKAYIELAGGSHFVPMSPNVTIAKYSIAWLKRFVDNDTRYDQFLCPVPQAAALSVSKGTCPHT [TEP175] | < 25
7 | GPTDFQRGPAPTEQSITAERGPFATAQTTVDGPNFNKGTAYYPTDTSQGTFGAVAISPGFASPEAVVSWYGPRLASQGFVVLTLETNSGSDLPDSRATQLVNALDFLVQSSSVKDRIDPNRLAVMGHSMGGGGSLKASELRPSLKAAIPLMPWNNDKTWQGDRVPTMIMGAQNDAIASPASHAKPFYDSLTSAPEKAYLELRSEGHLVAVSPNVTIAKYSIAWLKRFVDEDVRYEQFLCPAPTANLQISEYRNTCPTG [DP025] | < 25
8 | GPYQVAYYSSYPPVPEFSAATIYFPANKGEDFAGVAISPGFVESQENMSWWGRHLASHGFAVLTLDTNELRDNPSLRADALMAAIEVLRNEGDRMGSTLRGKILKDRMAIMGHSMGGGGTLIAANAHSADLKAAIPFTPWQPDGDFSTISIPTLVIAGENDRIAVMDIHGASLSTIHHEGDEGV [TEP125] | < 25
9 | GQSCDSLLLQSITNPGPFPVNNIDENSGIRNGPNYNGSTIYYPANNVNTLYSSIIMVPGFMNTELTIQNWGPFFASHGIITMTIGANGLTDTHIQRRDALLDAIVSLKNENQRVASPLFGKIDTFSIAVGGVSKGGGGAQLVPAIDLSIKAIVSLYPWLDNPTSSDLNHSVPVIIISGQLDALAPPSLHADIHYNLTPNTTNKLKYEVAFGTHDVISGPNGGNGEVGIRVISWLQNFLLSDSCYCPITILDASTSSSYITNVVCSNTTVGISQLEPYFLKKVLKIIDVLGREAEGNKNEPLFYIYNDGTVEKKIIIE [TEP017] | < 25
10 | GRMDSNVIDASGYSDLSLSFDRTTSGLDFGESGRVSVSINGGSFTVLESLRRASGRTTLQLGSSADNSSIQIRYQTFASSFYEIYTIDNIVIEGNSDSPPPPPPTGDLAAIGAYLETGGTATTPDQFSFTNTGDINIDSLTIDLSGGNASPVFDPNGVSFTVTGSDNVGFSGNFGLSGNSLLTLNFIDFGPGETFSFSGDLDDSNGSYTTGADVMGAELTVSASGNPSVSASFTVDSSNADRAVVNIGGSTPPPPIGGGCGPDPTVASLEASTGPFSFSNIDVPSSAQGFRNGTIYYPTNAPSDCTFGVISVVPGFLANESSIDWWGPRLASHGFIVITINTNTITDQPNSRALQSIAALNYAVNLGNSSSSAIGGKVDSSKQGVMGWSMGGGGALRAAADNPYLKAAMPQAPFNSGPNDFDEITVPTLIIACENDTVASVGIHASPFYNAISSTTEKGFLEINNGNHSCANGGSNRDILGKYGVSWMKRFMDDDTRYSQFLCDVNHTSDSAISDYRENCPY [TEP172] | < 25
11 | HAPAHAPAHQPVVAHHHAPFAVRTTVVPKTAVKAFGGGVIYTPQDTGKAVLGAVVITPGFTDTNADEKELAELVASQGFVAFAIDTLDTGDLPDQRATEILAAADYLTGQSAVRSEVSAKDVGLIGYSFGGGGTMQAAQARPSIKAAIGLMPFDFPPASDPNAQYPAYPKLTTPTLVITGQKDDVADPADFGKPAYDSIPGGTPKQYLELKGLDHYAGEHTPVAAIRNAVTAFLKRYLDGNSAYAKLICPAPKVGGPITASYSSCPKG [ESM190] | < 25
12 | HAPAPQPVVVHHHAPFAVRTTVVPKTAVKAFGGGVIYTPQDTGKPVLGAVVITPGFTNTNADEKELGQLVASQGFVAFVIDTLDTGDLPAQRATEILAATDYLTGQSAVRSEVSAKDVGLIGYSFGGGGTMQAAQSRPSIKAAIGLMPFDVPPASDPHALYATYPKLTTPTLVITGQKDEVARPKDFGKPAYDSIPAGTPKQYLELKGLDHSAGEHAPVAAIRNAVTAFLKRYLDGNSAYAKFICPAPKVGGPISVSLSSCPKG [ESM155] | < 25
13 | HAPVHQPAVAHHHAPFAVRTTAVPKTAVTTFGGGVIYTPQDTGKAVLGAVVITPGFTDTNADEKEMAELVASQGFVAFAIDTLDTSDLPAQRSTEILAAADYLTGQSAVKSQVSAKDVGLIGYSFGGGGTMEAAQARPSIKAAIGLMPFDFPDANDPNAQYATYPKLTTPTLVITGEKDDVATPKDYGKPAYDSIPAGTPKQYLELKGLGHGAGEHVPVPTIRNAVTAFLKRYLDGNSAYAKFICPAPKVGGPISVSLSSCPKG [TEP026] | < 25
14 | HGFNGGYIYYPTDTSQTFGAVAIVPAYTALFADEEAWMGPRLASFGFVVIGIETNSREDWDRARGAQLLAGLDYLTQHSAVRTRIDARRLAVIGHSMGGGGAFAAAARRPSLRAVVGLTPYFPSGDLATIRVPTLIIGGQNDTTVTPSYLERLYASLPTRTPSAYVMLADADHLFPTKPNPDQMRVLVPWLKIFVDKDVRYTRFLCPLADRSGISQYQVTCPLVPTV [TEP043] | < 25
15 | IENGPAPTFSSVQADGPFAVSTQTVRGSGFGGGTVYSPNTAGKYAVVAVCPGFTATQTSIALISRRLATHGFVVVTINTNTVYDYPASRANQLLAALRTVTALTTGPVAGKMDTSRQAVSGWSMGGGGAMLAAGMTPGLKAGVAFAPWSLTNNVGSSAVPMAYLAGTADTVAPASVHSSVFYNATPATTKKLIGVIQGADHYFPGTASQPASYTQVAWMKRFLDGDTRYSQFLNGDTRFATFRSTGPF [ESM109] | < 25
16 | IENGPAPTLADLQKDGPYAVTSQVVKGSGFGGGTVYSPNTAGKYALVAVCPGFVSPQSSMTDMSKRLATHGFVVVAITTNTLFDFPSSRATQLLAALKTVAALNTGAAAGKIDITRQVVSGWSMGGGGTLEAAGVTPGLTAAVAFAPWDTATTKMKTLTVPVAIFGGTNDTIAPVSGHSQKFYDIIPATTKKMLAVITGADHFFPTKASEPTSYSNISWVKRFADGDTRYSQFLNGQDAALASFTSTGPF [ESM138] | < 25

Reference: the supplement of paper PMC12455559
